Results: PMC3280215 (Science (New York, N.y.), 2011)
Residue numbers refer to the chain shown, from its start.

B1: PGT 128 VH H52aA (antibody, V domains shown)
VH: QPQLQESGPTLVEASETLSLTCAVSGDSTAACNSFWGWVRQPPGKGLEWVGSLSACASYWNRGWTYHNPSLKSRLTLALDTPKNLVFLKLNSVTAADTATYYCARFGGEVLRYTDWPKPAWVDLWGRGTLVTVSS
VL: QSALTQPPSASGSPGQSITISCTGTSNNFVSWYQQHAGKAPKLVIYDVNKRPSGVPDRFSGSKSGNTASLTVSGLQTDDEAVYYCGSLVGNWDVIFGGGTKLTVL
B2: PGT 127 IgG (antibody, V domains shown)
VH: QPQLQESGPGLVEASETLSLTCTVSGDSTGRCNYFWGWVRQPPGKGLEWIGSLSHCRSYYNTDWTYHNPSLKSRLTISLDTPKNQVFLRLTSVTAADTATYYCARFGGEVLVYRDWPKPAWVDLWGRGTLVTVSS
VL: B1 VL with H36Y, A37P, D47E, N66S, T77A, A81G, G86S
B3: PGT 128 IgG (antibody, V domains shown)
VH: B1 VH with A55H
VL: B1 VL
B4: Fab PGT 127 (Fab, V domains shown)
VH: B2 VH
VL: B1 VL with H36Y, A37P, D47E, N66S, T77A, A81G, G86S
B5: Fab PGT 128 (Fab, V domains shown)
VH: B1 VH with A55H
VL: B1 VL
B6: PGT 128 (format not stated for the experiment) (antibody, V domains shown)
VH: B1 VH with A55H
VL: B1 VL
B7: PGT 127 (format not stated for the experiment) (antibody, V domains shown)
VH: B2 VH
VL: B1 VL with H36Y, A37P, D47E, N66S, T77A, A81G, G86S

What was measured:
[1] = target: gp120 (of the ELISA) (HIV-1, strain  for ELISA; …, UniProt Q75760); experiment: ELISA
[2] = target: HIV-1 YU2 Env on the cell surface (HIV-1 YU2, UniProt P35961); experiment: flow cytometry on cells

Binder | binding result [1] | binding result [2]
B1 | binds | –
B2 | – | binds
B3 | – | binds
B4 | – | binds
B5 | – | binds
B6 | binds | –
B7 | binds | –
